Data taken from publication PMC10661694, “Architecture and regulation of a GDNF-GFRα1 synaptic adhesion assembly” (Nature Communications, 2023).

B2: zebrafish GFRα1 residues 144-368 (zGFRα1^D2-D3+) (domain or fragment, UniProt Q98TT9 144-368, looked up)
chain: EPALAKENNCLNAAKACNLNDTCKKYRSAYISPCTSRVSTAEVCNKRKCHKALRQFFDKVPPKHSYGMLYCSCPLGDQSACSERRRQTIVPACSYEDKERPNCLTLQVSCKTNYICRSRLADFFTNCQPEPLSLSGCLKENYADCLLSYSGLIGTVMTPNYLRSPKISVSPFCDCSSSGNSKEECDRFTEFFTDNACLRNAIQAFGNGTDVSVWHPMPPVQTTTS
notes: GFRα1a, zebrafish, residues 144-368 (D2-D3 and part of the C-tail, lacking D1); also called zGFRα1^144-368; source: Expi293F, secreted; purified (Ni-NTA, SEC) or co-expressed with zGDNF^mat and co-purified; not shown: His6, C-terminal, kept

Legend:
[1] = target: T1, full length, GPI-anchored rat GFRα1 (mGFRα1^FL; HA-rGFRα1^1-468) (rat) (UniProt Q62997)
T1 sequence (chain, GPI-anchor): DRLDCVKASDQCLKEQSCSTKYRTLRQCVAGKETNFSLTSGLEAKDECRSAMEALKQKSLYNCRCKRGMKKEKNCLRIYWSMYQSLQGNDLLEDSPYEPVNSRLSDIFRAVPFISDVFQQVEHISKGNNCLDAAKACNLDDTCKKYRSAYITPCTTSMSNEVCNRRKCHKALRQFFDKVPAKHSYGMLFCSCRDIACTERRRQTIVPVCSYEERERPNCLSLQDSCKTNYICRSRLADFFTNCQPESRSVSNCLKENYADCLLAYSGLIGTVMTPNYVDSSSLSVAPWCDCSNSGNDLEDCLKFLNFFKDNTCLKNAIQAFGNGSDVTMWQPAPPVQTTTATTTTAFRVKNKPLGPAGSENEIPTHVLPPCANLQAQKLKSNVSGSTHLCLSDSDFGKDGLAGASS

[2] = target: the molecule itself; assay: negative-stain electron microscopy; zGDNF^mat-zGFRα1^D2-D3+ cross-linked with 0.1% glutaraldehyde, SEC (Superose 6 Increase) in 20 mM HEPES pH 7.5, 130 mM NaCl, ~700 kDa fraction imaged; reconstruction at 30 Å
[3] = target: the molecule itself; assay: crystal structure; zGDNF^mat-zGFRα1^D1-D3 complex at 2.5 mg/ml in 20 mM Tris pH 7.0, 100 mM NaCl, 1 mM CaCl2; sitting drop, 22 °C; D1 clipped during crystallisation; 2.65 Å, P2_1, ten copies in the asymmetric unit
[4] = target: T2, human GDNF structured region, residues 110-211 (hGDNF^mat) (human, UniProt P39905 110-211); assay: SPR
T2 chain: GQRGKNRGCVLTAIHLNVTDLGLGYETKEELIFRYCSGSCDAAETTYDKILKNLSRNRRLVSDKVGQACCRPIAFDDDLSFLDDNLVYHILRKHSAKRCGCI

[5] = target: B2; assay: native gel or EMSA; blue native PAGE (3-12% Bis-Tris) of Ni2+-NTA purified co-expressed zGDNF^mat-zGFRα1 samples, 2 mg/ml, 10 mM HEPES pH 7.5, 130 mM NaCl, 1 mM CaCl2; time points; details: both partners purified

B1: rat GDNF (rGDNF) (ligand)
chain: SPDKQAAALPRRERNRQAAAASPENSRGKGRRGQRGKNRGCVLTAIHLNVTDLGLGYETKEELIFRYCSGSCEAAETMYDKILKNLSRSRRLTSDKVGQACCRPVAFDDDLSFLDDSLVYHILRKHSAKRCGCI
[1]
  HEK293 cell adhesion assay: proportion of cell clusters of mGFRα1^FL-expressing cells after rat GDNF (200 ng/ml): 5 fold

## B2
[2]
  binding result: binds

B3: zebrafish GFRα1 residues 20-353 (zGFRα1^D1-D3, lacking the GPI-anchor); ordered portion in the crystal zGFRα1^D2-D3 (domain or fragment, UniProt Q98TT9 144-353, looked up)
chain: EPALAKENNCLNAAKACNLNDTCKKYRSAYISPCTSRVSTAEVCNKRKCHKALRQFFDKVPPKHSYGMLYCSCPLGDQSACSERRRQTIVPACSYEDKERPNCLTLQVSCKTNYICRSRLADFFTNCQPEPLSLSGCLKENYADCLLSYSGLIGTVMTPNYLRSPKISVSPFCDCSSSGNSKEECDRFTEFFTDNACLRNAIQAFGNGTD
modifications: N-linked glycans (8 resolved for the 10 zGFRα1 protomers)
notes: GFRα1a, zebrafish, residues 20-353; In the crystal only D2-D3 is present (D1 clipped)
[3]
  stoichiometry N: 5 protomers in each ring

B4: human GFRα1 residues 150-424 (hGFRα1^D2-CT) (domain or fragment)
chain: KGNNCLDAAKACNLDDICKKYRSAYITPCTTSVSNDVCNRRKCHKALRQFFDKVPAKHSYGMLFCSCRDIACTERRRQTIVPVCSYEEREKPNCLNLQDSCKTNYICRSRLADFFTNCQPESRSVSSCLKENYADCLLAYSGLIGTVMTPNYIDSSSLSVAPWCDCSNSGNDLEECLKFLNFFKDNTCLKNAIQAFGNGSDVTVWQPAFPVQTTTATTTTALRVKNKPLGPAGSENEIPTHVLPPCANLQAQKLKSNVSGNTHLCISNGNYEKEG
[4]
  Kd: 71 nM

B5: zebrafish GDNF residues 134-235 (mature form, zGDNF^mat), crystallised in complex with zGFRα1^D1-D3 (ligand, UniProt Q98TU0 134-235, looked up)
chain: RVKGQGRGCLLKEIHLNVTDLDLGYRTKEELIFRYCSGPCHDAETNYDKILNNLTHNKKLDKDTPSRTCCRPIAFDDDISFLDDSLEYHTLKKHSAKKCACV
modifications: N-linked glycan at the N-glycosylation site of all zGDNF protomers
notes: GDNF, zebrafish, residues 134-235 (mature form); the methods give 135-235 for zGDNF^mat; Covalent dimer
[3]
  stoichiometry N: 2 protomers in each covalent dimer

B6: hGFRα1^D1-CT-K251E (protein)
chain: DRLDCVKASDQCLKEQSCSTKYRTLRQCVAGKETNFSLASGLEAKDECRSAMEALKQKSLYNCRCKRGMKKEKNCLRIYWSMYQSLQGNDLLEDSPYEPVNSRLSDIFRVVPFISDVFQQVEHIPKGNNCLDAAKACNLDDICKKYRSAYITPCTTSVSNDVCNRRKCHKALRQFFDKVPAKHSYGMLFCSCRDIACTERRRQTIVPVCSYEEREKPNCLNLQDSCETNYICRSRLADFFTNCQPESRSVSSCLKENYADCLLAYSGLIGTVMTPNYIDSSSLSVAPWCDCSNSGNDLEECLKFLNFFKDNTCLKNAIQAFGNGSDVTVWQPAFPVQTTTATTTTALRVKNKPLGPAGSENEIPTHVLPPCANLQAQKLKSNVSGNTHLCISNGNYEKEG
[4]
  Kd: 48 nM

B7: hGFRα1^D1-CT-L287E (protein)
chain: DRLDCVKASDQCLKEQSCSTKYRTLRQCVAGKETNFSLASGLEAKDECRSAMEALKQKSLYNCRCKRGMKKEKNCLRIYWSMYQSLQGNDLLEDSPYEPVNSRLSDIFRVVPFISDVFQQVEHIPKGNNCLDAAKACNLDDICKKYRSAYITPCTTSVSNDVCNRRKCHKALRQFFDKVPAKHSYGMLFCSCRDIACTERRRQTIVPVCSYEEREKPNCLNLQDSCKTNYICRSRLADFFTNCQPESRSVSSCLKENYADCLEAYSGLIGTVMTPNYIDSSSLSVAPWCDCSNSGNDLEECLKFLNFFKDNTCLKNAIQAFGNGSDVTVWQPAFPVQTTTATTTTALRVKNKPLGPAGSENEIPTHVLPPCANLQAQKLKSNVSGNTHLCISNGNYEKEG
[4]
  Kd: 33 nM

B8: human GFRα1 residues 25-424 (hGFRα1^D1-CT) (domain or fragment)
chain: DRLDCVKASDQCLKEQSCSTKYRTLRQCVAGKETNFSLASGLEAKDECRSAMEALKQKSLYNCRCKRGMKKEKNCLRIYWSMYQSLQGNDLLEDSPYEPVNSRLSDIFRVVPFISDVFQQVEHIPKGNNCLDAAKACNLDDICKKYRSAYITPCTTSVSNDVCNRRKCHKALRQFFDKVPAKHSYGMLFCSCRDIACTERRRQTIVPVCSYEEREKPNCLNLQDSCKTNYICRSRLADFFTNCQPESRSVSSCLKENYADCLLAYSGLIGTVMTPNYIDSSSLSVAPWCDCSNSGNDLEECLKFLNFFKDNTCLKNAIQAFGNGSDVTVWQPAFPVQTTTATTTTALRVKNKPLGPAGSENEIPTHVLPPCANLQAQKLKSNVSGNTHLCISNGNYEKEG
[4]
  Kd: 32 nM

B9: hGFRα1^D1-CT-K251E L287E (protein)
chain: DRLDCVKASDQCLKEQSCSTKYRTLRQCVAGKETNFSLASGLEAKDECRSAMEALKQKSLYNCRCKRGMKKEKNCLRIYWSMYQSLQGNDLLEDSPYEPVNSRLSDIFRVVPFISDVFQQVEHIPKGNNCLDAAKACNLDDICKKYRSAYITPCTTSVSNDVCNRRKCHKALRQFFDKVPAKHSYGMLFCSCRDIACTERRRQTIVPVCSYEEREKPNCLNLQDSCETNYICRSRLADFFTNCQPESRSVSSCLKENYADCLEAYSGLIGTVMTPNYIDSSSLSVAPWCDCSNSGNDLEECLKFLNFFKDNTCLKNAIQAFGNGSDVTVWQPAFPVQTTTATTTTALRVKNKPLGPAGSENEIPTHVLPPCANLQAQKLKSNVSGNTHLCISNGNYEKEG
[4]
  Kd: 91 nM

B10: zebrafish GDNF mature structured region, residues 135-235 (zGDNF^mat) (ligand, UniProt Q98TU0 135-235, looked up)
chain: VKGQGRGCLLKEIHLNVTDLDLGYRTKEELIFRYCSGPCHDAETNYDKILNNLTHNKKLDKDTPSRTCCRPIAFDDDISFLDDSLEYHTLKKHSAKKCACV
notes: GDNF, zebrafish, mature structured region, residues 135-235; The co-expressed form is called untagged; the methods describe no separate untagged construct, so both are kept as one molecule; also called untagged zGDNF^mat; soluble zGDNF^mat; source: Expi293F, secreted; not shown: His6, N-terminal, cleaved
[5]
  stoichiometry N: 1 zGDNF^mat protomers per zGFRα1 (10:10)
